Laboratory results: US20020004214A1, “Method to detect modulators of histidine kinases” (priority 1999, published 2002)

Key:
MalE-EspB fusion protein = assay: EspB autophosphorylation gel electrophoresis assay; format: biochemical, Staphylococcus aureus; conditions: purified protein pretreated with 2 M or 0.5 M guanidine-HCl, then dialyzed; [γ-32P]ATP 30 minutes; vs protein not pretreated
Procedure: Enzyme autophosphorylation activity was assayed as described in Example 4 below. Samples containing equal amounts of purified MalE-EspB fusion that had either been treated or not with guanidine-HCl were incubated with [γ-^32P]ATP for 30 minutes, analyzed by polyacrylamide gel electrophoresis, and exposed to X-ray film. In FIG. 3 the bands show the autophosphorylated protein, and can be quantitated. Lanes 1 and 2 show the activity of purified protein samples that had not been pretreated with guanidine-HCl, whereas the protein samples inlanes 3 and 4 had been pretreated with 2 M and 0.5 M guanidine-HCl, respectively, and dialyzed afterwards against enzyme storage buffer. When the X-ray picture is greatly overexposed, the protein bands become also apparent on lanes 1 and 2. The experiment showes that pretreatment with guanidine-HCl activates MalE-EspB by approximately 40 to 100-fold, a likely consequence of denaturing and then refolding the purified MalE-EspB protein.
Volumes of 18.5 μl of compounds diluted in 6% DMSO or controls of 6% DMSO alone were mixed in a microcentrifuge tube with an equal volume of EspB reaction mixture (containing EspB at 0.58 mg/ml in a salt buffer of 328 mM Tris-HCl [pH 8.0], 225 mM KCl, 0.4 mM PMSF {phenylmethylsulfonyl fluoride}, 1.2 mM DTT, 0.2 mM EDTA, 9.3 mM MnCl2, and 10% glycerol). […]

[1] = molecular target: T1, EspA cognate response regulator (UniProt Q5HJX7)
T1 sequence: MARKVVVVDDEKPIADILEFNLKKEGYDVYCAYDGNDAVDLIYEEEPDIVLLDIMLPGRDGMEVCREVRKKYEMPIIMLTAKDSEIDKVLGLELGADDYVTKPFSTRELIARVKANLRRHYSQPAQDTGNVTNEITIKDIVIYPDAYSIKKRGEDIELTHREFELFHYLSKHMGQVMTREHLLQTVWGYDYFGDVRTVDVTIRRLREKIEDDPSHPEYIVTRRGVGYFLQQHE

Compound	activation of MalE-EspB autophosphorylation activity by pretreatment (MalE-EspB fusion protein) [fold]	transphosphorylation of EspA by EspB without Ca++, [gamma-32P]ATP, SDS-PAGE and X-ray film [1]	transphosphorylation of EspA by EspB, [gamma-32P]ATP, SDS-PAGE and X-ray film [1]
Cl.N=C(N)N [guanidine-HCl, Guanidine-HCl]	40 to 100	–	–
MalE-EspB fusion protein	–	this transphosphorylation requires the presence of Ca^++ whereas autophosphorylation of EspB does not (absence of the EspA band in lane 5)	EspA is unable to autophosphorylate (lane 3), but that it can be transphosphorylated by its cognate HPK EspB (lane 2)
